Measured values reported in PMC9769802.

Molecular target: recombinant fusion p30-mFc protein (ASFV p30 fused to mouse IgG1 Fc) (African swine fever virus (strain not stated)) (UniProt P34204)
Experiment: SEC-MALS

## recombinant fusion p30-mFc protein (ASFV p30 fused to mouse IgG1 Fc) (from UniProt P34204 1-204) (Fc fusion)
  stoichiometry N: 2
